Laboratory results reported in patent publication US6541623.

Biological target: Interleukin-1 receptor on human fibroblasts (NHDF, normal human dermal fibroblasts) (human)
Experiment: cell-based or functional assay

Interleukin-1 receptor on human fibroblasts (NHDF, normal human dermal fibroblasts) (human), sequence (P14778 18-569): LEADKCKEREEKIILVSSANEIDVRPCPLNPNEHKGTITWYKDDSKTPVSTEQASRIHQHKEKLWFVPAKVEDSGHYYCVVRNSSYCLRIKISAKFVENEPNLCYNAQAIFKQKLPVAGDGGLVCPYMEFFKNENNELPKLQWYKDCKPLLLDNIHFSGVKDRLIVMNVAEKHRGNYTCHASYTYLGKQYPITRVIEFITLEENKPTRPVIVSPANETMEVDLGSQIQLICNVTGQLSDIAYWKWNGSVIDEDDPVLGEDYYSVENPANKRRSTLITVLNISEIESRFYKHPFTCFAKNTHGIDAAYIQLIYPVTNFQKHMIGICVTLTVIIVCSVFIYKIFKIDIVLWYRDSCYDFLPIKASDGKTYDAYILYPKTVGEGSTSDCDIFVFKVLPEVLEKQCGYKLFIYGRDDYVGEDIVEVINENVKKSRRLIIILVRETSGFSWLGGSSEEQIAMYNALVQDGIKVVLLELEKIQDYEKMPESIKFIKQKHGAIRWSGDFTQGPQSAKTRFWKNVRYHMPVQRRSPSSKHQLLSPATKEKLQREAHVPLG

Substance: IL-1 Hy1 Receptor Antagonist, non-tagged / preparation not specified (from UniProt Q9UBH0 1-155) (ligand)
- inhibition of IL-1β stimulated PGE2 production in CCD 1098 human fibroblast cells (PGE2 ELISA): 40 to 60 % inhibition
